Data: patent publication US20120039802A1 (published 2012)
fluorescein = fluorescein label on the side chain of the C-terminal Lys

B1: 95-A11 synthetic fluorescein-labeled peptide (SEQ ID NO: 456) (peptide)
peptide: Ac-AQVGSPMLPSWFSFEANWSSGGGK(fluorescein)-NH2
B2: 130-E10 synthetic fluorescein-labeled peptide (SEQ ID NO: 472) (peptide)
peptide: Ac-AQEWEREYFVDGFWGSWFGIPHGGGK(fluorescein)-NH2
B3: 93-C08 synthetic fluorescein-labeled peptide (SEQ ID NO: 464) (peptide)
peptide: Ac-AQVPDWLSAVVIEKLIEYGMMVGGGK(fluorescein)-NH2
B4: 333-C03 synthetic fluorescein-labeled peptide (SEQ ID NO: 391) (peptide)
peptide: Ac-GDDFHCEFIDDYQSEICYFNDPGGGK(fluorescein)-NH2
modifications: cysteine pairing not given here
B5: 524-H02 synthetic fluorescein-labeled peptide (SEQ ID NO: 492) (peptide)
peptide: Ac-AQVEDMATVHFKFNPATHEVIWGGGK(fluorescein)-NH2
B6: 545-H12 synthetic fluorescein-labeled peptide (SEQ ID NO: 399) (peptide)
peptide: Ac-GDYSECFFEPDSFEVKCYDRDPGGGK(fluorescein)-NH2
modifications: cysteine pairing not given here
B7: 546-G02 synthetic fluorescein-labeled peptide (SEQ ID NO: 390) (peptide)
peptide: Ac-GDYDYCDFDLETYIPECHSYDPGGGK(fluorescein)-NH2
modifications: cysteine pairing not given here
B8: 335-D11 synthetic fluorescein-labeled peptide (SEQ ID NO: 074) (peptide)
peptide: Ac-AGSIQCVGPPSFECTPYGTGGGK(fluorescein)-NH2
modifications: cysteine pairing not given here
B9: 551-H10 synthetic fluorescein-labeled peptide (SEQ ID NO: 370) (peptide)
peptide: Ac-GSFFPCWRIDRFGYCHANAPGGGK(fluorescein)-NH2
modifications: cysteine pairing not given here
B10: 104-C09 synthetic fluorescein-labeled peptide (SEQ ID NO: 461) (peptide)
peptide: Ac-AQDLKPWTAGWEPPWLWTDRGPGGGK(fluorescein)-NH2
B11: 103-G08 synthetic fluorescein-labeled peptide (SEQ ID NO: 459) (peptide)
peptide: Ac-AQVGTAEAIMFSDVEDTGVHKFGGGK(fluorescein)-NH2
B12: 117-F08 synthetic fluorescein-labeled peptide (SEQ ID NO: 462) (peptide)
peptide: Ac-AQHQYGQMMVLHIQYDMGEFIPGGGK(fluorescein)-NH2
B13: 79-B02 synthetic fluorescein-labeled peptide (SEQ ID NO: 475) (peptide)
peptide: Ac-AQHWDYDSGSDFWFPVFFLEHHGGGK(fluorescein)-NH2
B14: 02-B08 synthetic fluorescein-labeled peptide (SEQ ID NO: 467) (peptide)
peptide: Ac-AQHSVQRQMDVWMPVQFMAGFTGGGK(fluorescein)-NH2
B15: 571-C05 synthetic fluorescein-labeled peptide (SEQ ID NO: 001) (peptide)
peptide: Ac-GSWIICWWDNCGSSAPGGGK(fluorescein)-NH2
modifications: cysteine pairing not given here
B16: 94-F07 synthetic fluorescein-labeled peptide (SEQ ID NO: 458) (peptide)
peptide: Ac-AQPYYELQDADMLLVVALLSTGGGGK(fluorescein)-NH2
B17: 331-G06 synthetic fluorescein-labeled peptide (SEQ ID NO: 078) (peptide)
peptide: Ac-AGNWICTGPPSFGCWYHGTGGGK(fluorescein)-NH2
modifications: cysteine pairing not given here
B18: 76-D09 synthetic fluorescein-labeled peptide (SEQ ID NO: 463) (peptide)
peptide: Ac-AQSPYIFPIDDSGRQIFVIQWGGGGK(fluorescein)-NH2
B19: 127-A07 synthetic fluorescein-labeled peptide (SEQ ID NO: 469) (peptide)
peptide: Ac-AQGFELWVDHTRNFFIAISPGGGK(fluorescein)-NH2
B20: 525-A07 synthetic fluorescein-labeled peptide (SEQ ID NO: 449) (peptide)
peptide: Ac-AQQASRFTFTDGDSYWWFEDFGGGK(fluorescein)-NH2
B21: 116-H02 synthetic fluorescein-labeled peptide (SEQ ID NO: 466) (peptide)
peptide: Ac-AQKETWEFFDIVYGSGWKFNSPGGGK(fluorescein)-NH2
B22: 524-E09 synthetic fluorescein-labeled peptide (SEQ ID NO: 451) (peptide)
peptide: Ac-AQREVEEPYWYLDFLSSWRMHEGGGK(fluorescein)-NH2
B23: 118-A08 synthetic fluorescein-labeled peptide (SEQ ID NO: 453) (peptide)
peptide: Ac-AQRWSSPGMSQSFVLEWKWNDNGGGK(fluorescein)-NH2
B24: 117-F04 synthetic fluorescein-labeled peptide (SEQ ID NO: 479) (peptide)
peptide: Ac-AQWPHDGLVHWGEVIMLRFGGGK(fluorescein)-NH2
B25: 528-F05 synthetic fluorescein-labeled peptide (SEQ ID NO: 450) (peptide)
peptide: Ac-AQIQGIQKTEQGEFYWFNWFPAGGGK(fluorescein)-NH2
B26: 94-E08 synthetic fluorescein-labeled peptide (SEQ ID NO: 454) (peptide)
peptide: Ac-AQYDTWVFQFIHEVPGELVAMQGGGK(fluorescein)-NH2
B27: 331-G04 synthetic fluorescein-labeled peptide (SEQ ID NO: 055) (peptide)
peptide: Ac-AGSWHCAGPPSFECWEFGTGGGK(fluorescein)-NH2
modifications: cysteine pairing not given here
B28: 96-H12 synthetic fluorescein-labeled peptide (SEQ ID NO: 452) (peptide)
peptide: Ac-AQRPEAHYKLAMSYPIIPRTKTGGGK(fluorescein)-NH2
B29: 548-F07 synthetic fluorescein-labeled peptide (SEQ ID NO: 369) (peptide)
peptide: Ac-GSPEMCMMFPFLYPCNHHAPGGGK(fluorescein)-NH2
modifications: cysteine pairing not given here

What follows are binders tested against T1, cMet-Fc fusion protein (extracellular domain of the cMet receptor expressed as an Fc-fusion protein) (human, UniProt P08581 25-932) (assay: fluorescence polarization, 20 nM fluorescein peptide, cMet-Fc varied).
T1 construct: extracellular domain; also called soluble cMet-Fc-fusion protein; soluble cMet receptor; not shown: Fc part
Method: (§1) Fluorescence anisotropy measurements were performed in 384-well microplates in a volume of 10 μL in binding buffer (PBS, 0.01% Tween-20, pH 7.5) using a Tecan Polarion fluorescence polarization plate reader ([…]). […] Binding mixtures were equilibrated for 10 minutes in the microplate at 30 C before measurement. The observed change in anisotropy was fit to the equation below via nonlinear regression to obtain the apparent KD. This equation (1) assumes that the synthetic peptide and cMet form a reversible complex in solution with 1:1 stoichiometry.

T1 sequence (P08581 25-932): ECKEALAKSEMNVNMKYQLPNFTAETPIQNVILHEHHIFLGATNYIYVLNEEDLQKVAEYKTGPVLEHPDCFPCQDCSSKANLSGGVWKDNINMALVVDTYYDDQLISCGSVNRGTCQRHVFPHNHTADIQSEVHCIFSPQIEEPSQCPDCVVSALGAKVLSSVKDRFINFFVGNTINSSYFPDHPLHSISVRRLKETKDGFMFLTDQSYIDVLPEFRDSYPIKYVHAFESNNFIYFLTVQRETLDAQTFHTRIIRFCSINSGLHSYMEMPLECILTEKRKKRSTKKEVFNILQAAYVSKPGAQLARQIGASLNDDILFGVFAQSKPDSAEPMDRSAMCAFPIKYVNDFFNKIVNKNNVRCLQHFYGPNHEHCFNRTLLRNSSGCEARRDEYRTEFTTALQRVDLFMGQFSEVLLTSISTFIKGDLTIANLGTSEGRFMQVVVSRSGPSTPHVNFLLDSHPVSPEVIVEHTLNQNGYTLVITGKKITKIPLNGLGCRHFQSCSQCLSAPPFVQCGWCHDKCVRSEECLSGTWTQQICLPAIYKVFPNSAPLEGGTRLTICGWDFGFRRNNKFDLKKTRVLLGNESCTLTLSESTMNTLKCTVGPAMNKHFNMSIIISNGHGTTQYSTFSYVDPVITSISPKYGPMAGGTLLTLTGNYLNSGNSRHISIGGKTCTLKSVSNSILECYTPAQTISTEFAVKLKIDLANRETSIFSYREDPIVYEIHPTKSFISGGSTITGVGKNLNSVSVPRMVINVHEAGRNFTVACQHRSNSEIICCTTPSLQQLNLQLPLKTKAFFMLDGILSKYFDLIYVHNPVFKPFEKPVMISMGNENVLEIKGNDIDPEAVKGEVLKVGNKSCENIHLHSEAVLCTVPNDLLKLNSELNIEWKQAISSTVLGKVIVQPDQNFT

Row | Binder | Kd [nM]
1 | B1 | 2300
2 | B2 | 2600
3 | B3 | > 2000
4 | B4 | 1800
5 | B5 | 800
6 | B6 | 1150
7 | B7 | 1500
8 | B8 | 3300
9 | B9 | 220
10 | B10 | > 2000
11 | B11 | > 2000
12 | B12 | > 2000
13 | B13 | 1900
14 | B14 | > 2000
15 | B15 | 200
16 | B16 | 3750
17 | B17 | 2900
18 | B18 | > 2000
19 | B19 | 2400
20 | B20 | 6900
21 | B21 | > 2000
22 | B22 | 2000
23 | B23 | > 2000
24 | B24 | 1700
25 | B25 | 2700
26 | B26 | 930
27 | B27 | 900
28 | B28 | > 2000

Each binder was assayed against T2, mouse cMet (mouse, UniProt P16056 25-931, limits assumed) (assay: fluorescence polarization, mouse target).
T2 construct: Construct not described; also called Kd (mouse) target
Method: as §1

T2 sequence (P16056 25-931 limits assumed): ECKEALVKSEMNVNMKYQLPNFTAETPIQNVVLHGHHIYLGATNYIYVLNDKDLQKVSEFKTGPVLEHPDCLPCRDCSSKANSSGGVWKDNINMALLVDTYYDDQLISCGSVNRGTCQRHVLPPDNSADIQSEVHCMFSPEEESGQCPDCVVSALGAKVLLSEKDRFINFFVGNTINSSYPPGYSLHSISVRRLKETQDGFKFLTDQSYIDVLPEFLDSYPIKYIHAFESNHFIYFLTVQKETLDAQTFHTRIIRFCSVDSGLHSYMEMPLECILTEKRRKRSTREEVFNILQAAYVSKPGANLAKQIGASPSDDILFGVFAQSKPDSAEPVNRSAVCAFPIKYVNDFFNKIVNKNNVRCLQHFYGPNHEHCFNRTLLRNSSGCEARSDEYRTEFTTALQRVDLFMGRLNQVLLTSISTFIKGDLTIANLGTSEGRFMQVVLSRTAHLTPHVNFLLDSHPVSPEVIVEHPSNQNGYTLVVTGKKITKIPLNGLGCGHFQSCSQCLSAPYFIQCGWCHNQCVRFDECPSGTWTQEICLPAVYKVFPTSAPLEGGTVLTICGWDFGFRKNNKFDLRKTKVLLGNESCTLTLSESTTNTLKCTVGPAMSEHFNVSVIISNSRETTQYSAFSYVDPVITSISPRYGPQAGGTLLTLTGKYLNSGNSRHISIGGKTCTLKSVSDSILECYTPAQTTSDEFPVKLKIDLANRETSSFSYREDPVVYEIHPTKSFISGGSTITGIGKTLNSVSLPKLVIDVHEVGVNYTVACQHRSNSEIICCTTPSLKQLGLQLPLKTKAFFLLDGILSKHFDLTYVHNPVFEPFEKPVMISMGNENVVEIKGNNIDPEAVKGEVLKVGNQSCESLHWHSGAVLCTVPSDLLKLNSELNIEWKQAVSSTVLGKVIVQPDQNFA

Row | Binder | Kd [nM]
29 | B2 | 7650
30 | B15 | 3500
31 | B27 | 1100

What follows are binders tested against T2, mouse cMet (assay: fluorescence polarization).

Row | Binder | binding result
32 | B6 | no binding
33 | B9 | no binding
34 | B29 | no binding
